Measurements as given in patent US20190016816A1.

Target: FcγRIIa (CD32a His131) (UniProt P12318)
Test: flow cytometry, CHO cells stably expressing CD32a His131, fluorescent anti-human IgG secondary, MFI (mean)

Chain of FcγRIIa (CD32a His131) (P12318 34-317 limits assumed): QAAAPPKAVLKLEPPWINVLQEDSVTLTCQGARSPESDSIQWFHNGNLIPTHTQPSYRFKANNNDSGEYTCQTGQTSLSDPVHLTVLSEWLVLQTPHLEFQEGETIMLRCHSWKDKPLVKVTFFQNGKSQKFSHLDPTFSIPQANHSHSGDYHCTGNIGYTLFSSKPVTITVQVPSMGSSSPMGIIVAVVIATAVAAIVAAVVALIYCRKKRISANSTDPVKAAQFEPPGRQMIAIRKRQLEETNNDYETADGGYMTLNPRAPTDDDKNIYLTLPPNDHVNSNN

EC50 (read off the curve): 9 nM
Substance: control human IgG1 molecule (antibody)
